Common to all, as to settings: remark: other sources report otherwise
The target of test [1] is T1, TGF-β2, P61812.
T1 chain: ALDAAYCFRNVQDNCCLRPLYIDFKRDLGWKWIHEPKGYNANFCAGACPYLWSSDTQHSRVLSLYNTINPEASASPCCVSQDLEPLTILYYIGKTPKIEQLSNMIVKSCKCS
Kind of test: indirect ELISA; […] diluted 1:9.

Test [2] deals with T1, TGF-β2, P61812. Kind of test: indirect ELISA; […]. Background: An ELISA detects its analyte on a solid surface through an enzyme-linked reagent.
The target of test [3] is T1, TGF-β2, P61812. Kind of test: indirect ELISA; […] diluted 1:27.
The target in test [4] is T1, TGF-β2, P61812. Briefly: indirect ELISA; […] diluted 1:3.
Test [5] deals with T1, TGF-β2, P61812. Briefly: indirect ELISA; […] diluted 1:243.
Test [6] deals with T1, TGF-β2, P61812. Briefly: indirect ELISA; […] diluted 1:729.
For test [7], the target named is T1, TGF-β2, P61812. Kind of test: indirect ELISA; 0 (blank).
For test [8], the target named is T1, TGF-β2, P61812. Kind of test: indirect ELISA; […] diluted 1:81.
Test [9] has as its target T1, TGF-β2, P61812. Briefly: indirect ELISA, TGF-β2 coated.

From patent EP4671269A1 come the findings set out here.

Where “and” joins values, the source holds several entries; their conditions need not be identical. Equal values may be shown once.

B1: TGF-βRII-mFc, P37173 24-159 (Fc fusion, UniProt P37173 24-159, looked up, not shown: a dimerising Fc or GST)
chain: IPPHVQKSVNNDMIVTDNNGAVKFPQLCKFCDVRFSTCDNQKSCMSNCSITSICEKPQEVCVAVWRKNDENITLETVCHDPKLPYHDFILEDAASPKCIMKEKKKPGETFFMCSCSSDECNDNIIFSEEYNTSNPD
As for B1, the OD450 with TGF-β2, P61812 [1] was 0.908 OD and 0.925 OD; with TGF-β2, P61812 [2], 1.46 OD and 1.44 OD; with TGF-β2, P61812 [3], 0.432 OD and 0.462 OD; with TGF-β2, P61812 [4], 1.34 OD and 1.32 OD; in the test with TGF-β2, P61812 [5] it was 0.202 OD and 0.158 OD; in the test with TGF-β2, P61812 [6] it was 0.184 OD and 0.152 OD. Also, the OD450 is 0.176 OD and 0.16 OD with TGF-β2, P61812 [7]; 0.253 OD and 0.211 OD with TGF-β2, P61812 [8]. The same molecule returned an EC50 in the test with TGF-β2, P61812 [9] of 1.03 nM.

What is called EC50 is the midpoint of the concentration-response curve. A low value points to greater potency.
